Data as given in patent publication US20120244164A1 (published 2012).

Tests used:
Human c-Met [1] = target: T1, Human c-Met (human, UniProt P08581 25-1390); assay: cell-based or functional assay
[2] = target: T2, recombinant human c-Met/Fc chimera (R&D systems) (human); assay: HGF-competition Alphascreen, EXP 1
T2 construct: R&D Systems 358-MT/CF, expressed in NS0 cells; also called hc-Met/Fc; hu c-Met/Fc

[3] = target: T2, recombinant human c-Met/Fc chimera (R&D …); assay: HGF-competition Alphascreen, EXP 1, second value
Human c-Met [4] = target: T1, Human c-Met; assay: cell-based or functional assay; remark: listed apart in the source
[5] = target: T2, recombinant human c-Met/Fc chimera (R&D …); assay: HGF-competition Alphascreen
[6] = target: T2, recombinant human c-Met/Fc chimera (R&D …); assay: HGF-competition Alphascreen; remark: listed apart in the source
[7] = target: T2, recombinant human c-Met/Fc chimera (R&D …); assay: modified HGF-competition Alphascreen: 0.4 nM biotinylated HGF, 0.016 nM cMet/Fc

T2 sequence (chain, as listed by the source mutant limits assumed): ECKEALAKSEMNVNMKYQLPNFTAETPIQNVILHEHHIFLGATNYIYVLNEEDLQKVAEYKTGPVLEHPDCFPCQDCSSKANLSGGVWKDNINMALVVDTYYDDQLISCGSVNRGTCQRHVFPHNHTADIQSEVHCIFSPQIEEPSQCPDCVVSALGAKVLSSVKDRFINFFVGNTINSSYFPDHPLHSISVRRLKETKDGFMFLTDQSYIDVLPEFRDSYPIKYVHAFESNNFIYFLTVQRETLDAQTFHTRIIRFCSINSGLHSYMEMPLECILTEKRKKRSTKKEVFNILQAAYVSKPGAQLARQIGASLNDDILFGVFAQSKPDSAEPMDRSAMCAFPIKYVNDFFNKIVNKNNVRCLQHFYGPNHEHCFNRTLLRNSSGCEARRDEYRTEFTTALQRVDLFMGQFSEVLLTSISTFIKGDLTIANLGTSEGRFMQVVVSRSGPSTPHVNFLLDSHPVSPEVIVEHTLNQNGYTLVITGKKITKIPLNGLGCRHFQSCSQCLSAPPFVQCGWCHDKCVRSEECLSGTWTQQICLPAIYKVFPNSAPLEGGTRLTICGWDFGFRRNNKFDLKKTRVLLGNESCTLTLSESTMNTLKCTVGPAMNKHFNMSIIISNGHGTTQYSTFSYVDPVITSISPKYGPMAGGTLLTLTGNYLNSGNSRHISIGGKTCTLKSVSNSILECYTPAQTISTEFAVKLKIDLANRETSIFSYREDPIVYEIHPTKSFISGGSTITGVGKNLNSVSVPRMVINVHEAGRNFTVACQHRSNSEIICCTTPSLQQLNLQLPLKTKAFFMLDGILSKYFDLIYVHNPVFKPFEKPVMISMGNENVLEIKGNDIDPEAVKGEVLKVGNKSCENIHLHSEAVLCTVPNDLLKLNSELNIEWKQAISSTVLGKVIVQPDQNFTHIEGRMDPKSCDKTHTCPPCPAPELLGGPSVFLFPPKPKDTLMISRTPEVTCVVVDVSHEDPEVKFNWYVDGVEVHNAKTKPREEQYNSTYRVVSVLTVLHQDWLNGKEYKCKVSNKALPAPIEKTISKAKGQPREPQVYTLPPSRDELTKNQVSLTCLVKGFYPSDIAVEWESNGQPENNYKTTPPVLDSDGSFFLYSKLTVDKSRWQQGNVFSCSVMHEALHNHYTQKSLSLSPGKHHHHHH
T1 sequence (P08581 25-1390 limits assumed): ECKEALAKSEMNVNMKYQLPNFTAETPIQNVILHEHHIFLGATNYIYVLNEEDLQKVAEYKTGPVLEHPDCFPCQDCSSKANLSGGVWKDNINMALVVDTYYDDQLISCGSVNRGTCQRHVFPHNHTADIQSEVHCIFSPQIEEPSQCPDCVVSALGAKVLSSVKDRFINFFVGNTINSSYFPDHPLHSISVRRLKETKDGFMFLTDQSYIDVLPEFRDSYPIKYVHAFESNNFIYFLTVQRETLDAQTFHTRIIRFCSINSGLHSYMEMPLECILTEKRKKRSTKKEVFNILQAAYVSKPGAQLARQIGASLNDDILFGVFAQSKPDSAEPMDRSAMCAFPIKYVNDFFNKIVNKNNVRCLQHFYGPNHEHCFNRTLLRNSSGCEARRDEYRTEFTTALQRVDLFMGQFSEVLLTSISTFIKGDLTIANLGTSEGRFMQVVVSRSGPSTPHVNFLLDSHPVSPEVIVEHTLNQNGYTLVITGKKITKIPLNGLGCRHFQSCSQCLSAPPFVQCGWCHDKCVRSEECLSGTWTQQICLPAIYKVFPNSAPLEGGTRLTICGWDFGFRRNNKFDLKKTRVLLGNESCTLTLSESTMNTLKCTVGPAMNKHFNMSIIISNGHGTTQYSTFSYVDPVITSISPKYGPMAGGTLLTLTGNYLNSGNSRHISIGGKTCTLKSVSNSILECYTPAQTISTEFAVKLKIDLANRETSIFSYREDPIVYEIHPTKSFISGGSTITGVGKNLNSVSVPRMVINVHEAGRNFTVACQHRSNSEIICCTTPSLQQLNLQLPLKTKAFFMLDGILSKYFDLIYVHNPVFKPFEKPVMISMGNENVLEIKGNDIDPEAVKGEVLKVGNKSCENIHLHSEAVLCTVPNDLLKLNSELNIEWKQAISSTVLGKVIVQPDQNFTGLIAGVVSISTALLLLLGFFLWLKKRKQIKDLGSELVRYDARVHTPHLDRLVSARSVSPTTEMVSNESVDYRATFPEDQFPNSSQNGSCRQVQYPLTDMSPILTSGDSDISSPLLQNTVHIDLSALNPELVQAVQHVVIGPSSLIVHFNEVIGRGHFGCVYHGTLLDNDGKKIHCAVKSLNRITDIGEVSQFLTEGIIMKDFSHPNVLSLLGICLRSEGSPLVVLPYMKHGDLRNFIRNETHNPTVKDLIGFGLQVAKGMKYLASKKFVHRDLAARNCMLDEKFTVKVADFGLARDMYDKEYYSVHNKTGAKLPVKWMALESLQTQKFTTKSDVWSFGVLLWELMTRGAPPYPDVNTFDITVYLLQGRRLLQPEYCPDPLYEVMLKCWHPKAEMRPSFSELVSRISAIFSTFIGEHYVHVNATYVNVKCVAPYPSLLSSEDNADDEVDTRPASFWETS

Row | IC50, cell-based cMet phosphorylation assay (Human c-Met [4]) [nM] | IC50 [5] [nM] | IC50 [6] [nM] | Binder | also measured
1 | – | – | – | A00790067 (VHH, the entry as printed already holds the 3xFLAG-His6 tag; also called 04E09 (Q108L)) VHH: VQLVESGGGLVQPGGSLRLSCAASGFILDYYAIGWFRQAPGKEREGVLCIDASDDITYYADSVKGRFTISRDNAKNTVYLQMNSLKPEDTGVYYCATPIGLSSSCLLEYDYDYWGQGTLVTVSS | IC50, c-Met phosphorylation, EXP 1 (Human c-Met [1]): 2.21 nM; IC50 [2]: 0.069 nM; IC50 [3]: 0.069 nM
2 | 79 | 0.78 | 0.61 | A007900184 (33H10-3xFLAG-His6) (VHH, the entry holds the tag; also called A007900184 (wt)) VHH: EVQLVESGGGLVQAGGSLRLSCAASGFTFDDYAIGWFRQAPGEEREGVSSISSTYGLTYYADSVKGRFTISSSNAKNTVYLQMNNLKPEDTAVYYCAATPIERLGLDAYEYDYWGQGTLVTVSS | –
3 | – | 42 | – | A007900750 (VHH, 33H10 variant; the entry holds the 3xFLAG-His6 tag) VHH: EVQLVESGGGLVQPGGSLRLSCAASGFTFDDYAIGWFRQAPGKEREGVSSISSTYGLTYYADSVKGRFTISRSNSKNTVYLQMNNLKPEDTAVYYCAATPIERLGLDAYEYDYWGQGTLVTVSS | –
4 | – | 100 | – | A007900753 (VHH, 33H10 variant; the entry holds the 3xFLAG-His6 tag) VHH: EVQLVESGGGLVQPGGSLRLSCAASGFTFDDYAIGWFRQAPGKEREGVSSISSTYGLTYYADSVKGRFTISRDNSKNTVYLQMNSLKPEDTAVYYCAATPIERLGLDAYEYDYWGQGTLVTVSS | –
5 | 4.98 | – | 0.068 | A007901251 (VHH, 33H10 variant, 3xFLAG-His6 tagged; the entry holds the tag) VHH: EVQLVESGGGLVQPGGSLRLSCAASGFTFDDYAIGWFRQAPGKERLGVSSISSTYGLTYYADSVKGRFTISSDNSKNTVYLQMNSLRPEDTAVYYCAATPIGLIGLDAYEYDYWGQGTLVTVSS | –
6 | – | 3.4 | – | A007900749 (VHH, 33H10 variant; the entry holds the 3xFLAG-His6 tag) VHH: EVQLVESGGGLVQPGGSLRLSCAASGFTFDDYAIGWFRQAPGKEREGVSSISSTYGLTYYADSVKGRFTISSDNSKNTVYLQMNSLKPEDTAVYYCAATPIERLGLDAYEYDYWGQGTLVTVSS | –
7 | 4.84 | – | 0.071 | A007901253 (VHH, 33H10 variant, 3xFLAG-His6 tagged; the entry holds the tag) VHH: EVQLVESGGGLVQPGGSLRLSCAASGFTFDDYAIGWFRQAPGEEREGVSSISSTYGLTYYADPVKGRFTISSDNSKNTVYLQMNSLRPEDTAVYYCAATPIGLIGLDAYEYDYWGQGTLVTVSS | –
8 | – | 26 | – | A007900743 (VHH, 33H10 variant; the entry holds the 3xFLAG-His6 tag) VHH: EVQLVESGGGLVQPGGSLRLSCAASGFTFDDYAIGWFRQAPGEEREGVSSISSTYGLTYYADSVKGRFTISRDNSKNTVYLQMNNLKPEDTAVYYCAATPIERLGLDAYEYDYWGQGTLVTVSS | –
9 | 2.81 | – | 0.08 | A007901249 (VHH, 33H10 variant, 3xFLAG-His6 tagged; the entry holds the tag; also called monovalent form of A007901259) VHH: EVQLVESGGGLVQPGGSLRLSCAASGFTFDDYAIGWFRQAPGEERLGVSSISSTYGLTYYADSVKGRFTISSDNSKNTVYLQMNSLRPEDTAVYYCAATPIGLIGLDAYEYDYWGQGTLVTVSS | IC50, cell-based proliferation assay, plate 2 (Human c-Met [4]): 1.93 nM; IC50 [7]: 0.043 nM
10 | – | 2.5 | – | A007900747 (VHH, 33H10 variant; the entry holds the 3xFLAG-His6 tag) VHH: EVQLVESGGGLVQPGGSLRLSCAASGFTFDDYAIGWFRQAPGKEREGVSSISSTYGLTYYADSVKGRFTISSSNSKNTVYLQMNSLKPEDTAVYYCAATPIERLGLDAYEYDYWGQGTLVTVSS | –
11 | – | 3.5 | – | A007900748 (VHH, 33H10 variant; the entry holds the 3xFLAG-His6 tag) VHH: EVQLVESGGGLVQPGGSLRLSCAASGFTFDDYAIGWFRQAPGKEREGVSSISSTYGLTYYADSVKGRFTISSDNSKNTVYLQMNNLKPEDTAVYYCAATPIERLGLDAYEYDYWGQGTLVTVSS | –
12 | – | 100 | – | A007900751 (VHH, 33H10 variant; the entry holds the 3xFLAG-His6 tag) VHH: EVQLVESGGGLVQPGGSLRLSCAASGFTFDDYAIGWFRQAPGKEREGVSSISSTYGLTYYADSVKGRFTISRDNSKNTVYLQMNNLKPEDTAVYYCAATPIERLGLDAYEYDYWGQGTLVTVSS | –
13 | 5.41 | – | 0.092 | A007901245 (VHH, 33H10 variant, 3xFLAG-His6 tagged; the entry holds the tag; also called monovalent form of A007901255) VHH: EVQLVESGGGLVQPGGSLRLSCAASGFTFDDYAIGWFRQAPGEEREGVSSISSTYGLTYYADSVKGRFTISSDNSKNTVYLQMNSLRPEDTAVYYCAATPIGLIGLDAYEYDYWGQGTLVTVSS | IC50, cell-based proliferation assay, plate 1 (Human c-Met [4]): 3.69 nM; IC50 [7]: 0.091 nM
14 | – | 0.58 | – | A007900739 (VHH, 33H10 variant; the entry holds the 3xFLAG-His6 tag) VHH: EVQLVESGGGLVQPGGSLRLSCAASGFTFDDYAIGWFRQAPGEEREGVSSISSTYGLTYYADSVKGRFTISSSNSKNTVYLQMNSLKPEDTAVYYCAATPIERLGLDAYEYDYWGQGTLVTVSS | –
15 | 4.16 | – | 0.12 | A007901252 (VHH, 33H10 variant, 3xFLAG-His6 tagged; the entry holds the tag) VHH: EVQLVESGGGLVQPGGSLRLSCAASGFAFDDYAIGWFRQAPGKERLGVSSISSTYGLTYYADSVKGRFTISSDNSKNTVYLQMNSLRPEDTAVYYCAATPIGLIGLDAYEYDYWGQGTLVTVSS | –
16 | 11.5 | – | 0.17 | A007901248 (VHH, 33H10 variant, 3xFLAG-His6 tagged; the entry holds the tag) VHH: EVQLVESGGGLVQPGGSLRLSCAASGFAFDDYAIGWFRQAPGKEREGVSSISSTYGLTYYADSVKGRFTISSDNSKNTVYLQMNSLRPEDTAVYYCAATPIGLIGLDAYEYDYWGQGTLVTVSS | –
17 | 3.44 | – | 0.089 | A007901246 (VHH, 33H10 variant, 3xFLAG-His6 tagged; the entry holds the tag; also called monovalent form of A007901256) VHH: EVQLVESGGGLVQPGGSLRLSCAASGFAFDDYAIGWFRQAPGEEREGVSSISSTYGLTYYADSVKGRFTISSDNSKNTVYLQMNSLRPEDTAVYYCAATPIGLIGLDAYEYDYWGQGTLVTVSS | IC50, cell-based proliferation assay, plate 1 (Human c-Met [4]): 1.88 nM; IC50 [7]: 0.048 nM
18 | – | 0.69 | – | A007900738 (VHH, 33H10 variant; the entry holds the 3xFLAG-His6 tag) VHH: EVQLVESGGGLVQPGGSLRLSCAASGFTFDDYAIGWFRQAPGEEREGVSSISSTYGLTYYADSVKGRFTISSSNSKNTVYLQMNNLKPEDTAVYYCAATPIERLGLDAYEYDYWGQGTLVTVSS | –
19 | – | 18 | – | A007900745 (VHH, 33H10 variant; the entry holds the 3xFLAG-His6 tag) VHH: EVQLVESGGGLVQPGGSLRLSCAASGFTFDDYAIGWFRQAPGEEREGVSSISSTYGLTYYADSVKGRFTISRDNSKNTVYLQMNSLKPEDTAVYYCAATPIERLGLDAYEYDYWGQGTLVTVSS | –
20 | – | 31 | – | A007900752 (VHH, 33H10 variant; the entry holds the 3xFLAG-His6 tag) VHH: EVQLVESGGGLVQPGGSLRLSCAASGFTFDDYAIGWFRQAPGKEREGVSSISSTYGLTYYADSVKGRFTISRSNSKNTVYLQMNSLKPEDTAVYYCAATPIERLGLDAYEYDYWGQGTLVTVSS | –
21 | 2.34 | – | 0.081 | A007901250 (VHH, 33H10 variant, 3xFLAG-His6 tagged; the entry holds the tag; also called monovalent form of A007901260) VHH: EVQLVESGGGLVQPGGSLRLSCAASGFAFDDYAIGWFRQAPGEERLGVSSISSTYGLTYYADSVKGRFTISSDNSKNTVYLQMNSLRPEDTAVYYCAATPIGLIGLDAYEYDYWGQGTLVTVSS | IC50, cell-based proliferation assay, plate 1 (Human c-Met [4]): 2.29 nM; IC50, cell-based proliferation assay, plate 2 (Human c-Met [4]): 1.32 nM; IC50 [7]: 0.035 nM
22 | – | 0.85 | – | A007900741 (VHH, 33H10 variant; the entry holds the 3xFLAG-His6 tag) VHH: EVQLVESGGGLVQPGGSLRLSCAASGFTFDDYAIGWFRQAPGEEREGVSSISSTYGLTYYADSVKGRFTISSDNSKNTVYLQMNSLKPEDTAVYYCAATPIERLGLDAYEYDYWGQGTLVTVSS | –
23 | – | 8.3 | – | A007900742 (VHH, 33H10 variant; the entry holds the 3xFLAG-His6 tag) VHH: EVQLVESGGGLVQPGGSLRLSCAASGFTFDDYAIGWFRQAPGEEREGVSSISSTYGLTYYADSVKGRFTISRSNSKNTVYLQMNNLKPEDTAVYYCAATPIERLGLDAYEYDYWGQGTLVTVSS | –
24 | 12.8 | – | 0.27 | A007901247 (VHH, 33H10 variant, 3xFLAG-His6 tagged; the entry holds the tag) VHH: EVQLVESGGGLVQPGGSLRLSCAASGFTFDDYAIGWFRQAPGKEREGVSSISSTYGLTYYADSVKGRFTISSDNSKNTVYLQMNSLRPEDTAVYYCAATPIGLIGLDAYEYDYWGQGTLVTVSS | –
25 | – | 2.5 | – | A007900746 (VHH, 33H10 variant; the entry holds the 3xFLAG-His6 tag) VHH: EVQLVESGGGLVQPGGSLRLSCAASGFTFDDYAIGWFRQAPGKEREGVSSISSTYGLTYYADSVKGRFTISSSNSKNTVYLQMNNLKPEDTAVYYCAATPIERLGLDAYEYDYWGQGTLVTVSS | –
26 | – | 1.1 | – | A007900740 (VHH, 33H10 variant; the entry holds the 3xFLAG-His6 tag) VHH: EVQLVESGGGLVQPGGSLRLSCAASGFTFDDYAIGWFRQAPGEEREGVSSISSTYGLTYYADSVKGRFTISSDNSKNTVYLQMNNLKPEDTAVYYCAATPIERLGLDAYEYDYWGQGTLVTVSS | –
27 | – | 11 | – | A007900744 (VHH, 33H10 variant; the entry holds the 3xFLAG-His6 tag) VHH: VQLVESGGGLVQPGGSLRLSCAASGFTFDDYAIGWFRQAPGEEREGVSSISSTYGLTYYADSVKGRFTISRSNSKNTVYLQMNSLKPEDTAVYYCAATPIERLGLDAYEYDYWGQGTLVTVSS | –
28 | – | – | – | A00790068 (VHH, the entry as printed already holds the 3xFLAG-His6 tag; also called 04E09 (A74S, K83R, Q108L)) VHH: EVQLVESGGGLVQPGGSLRLSCAASGFILDYYAIGWFRQAPGKEREGVLCIDASDDITYYADSVKGRFTISRDNSKNTVYLQMNSLRPEDTGVYYCATPIGLSSSCLLEYDYDYWGQGTLVTVSS | IC50, c-Met phosphorylation, EXP 1 (Human c-Met [1]): 1.96 nM; IC50 [2]: 0.104 nM; IC50 [3]: 0.072 nM
